# T1: SGK2(h) (human, UniProt Q9HBY8 1-367, limits assumed)
# T1 sequence (looked up): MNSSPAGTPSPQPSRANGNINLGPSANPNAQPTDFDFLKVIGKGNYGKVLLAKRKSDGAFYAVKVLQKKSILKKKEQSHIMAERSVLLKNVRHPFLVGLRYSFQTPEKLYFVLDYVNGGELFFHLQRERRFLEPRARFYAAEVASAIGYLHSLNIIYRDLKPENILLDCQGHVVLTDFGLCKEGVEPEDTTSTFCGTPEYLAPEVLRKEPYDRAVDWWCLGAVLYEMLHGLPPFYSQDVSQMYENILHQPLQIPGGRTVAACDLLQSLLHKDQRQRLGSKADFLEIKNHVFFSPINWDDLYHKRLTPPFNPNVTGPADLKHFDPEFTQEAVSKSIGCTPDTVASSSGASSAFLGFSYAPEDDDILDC
# T2: EphA1(h) (human, UniProt P21709 569-976, limits assumed)
# T2 sequence (looked up): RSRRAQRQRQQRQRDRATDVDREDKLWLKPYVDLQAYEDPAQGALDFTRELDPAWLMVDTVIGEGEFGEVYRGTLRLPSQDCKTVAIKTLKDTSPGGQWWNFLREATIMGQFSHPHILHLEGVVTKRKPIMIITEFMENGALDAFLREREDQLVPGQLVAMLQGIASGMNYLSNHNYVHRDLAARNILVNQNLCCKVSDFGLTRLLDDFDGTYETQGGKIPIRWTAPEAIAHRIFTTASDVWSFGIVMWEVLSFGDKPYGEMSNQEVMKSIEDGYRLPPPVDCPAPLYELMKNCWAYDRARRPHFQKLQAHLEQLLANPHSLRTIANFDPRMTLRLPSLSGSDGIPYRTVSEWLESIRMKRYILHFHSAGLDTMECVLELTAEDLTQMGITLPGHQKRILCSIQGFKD
# T3: EphA3(h) (human, UniProt P29320 566-983, limits assumed)
# T3 sequence (looked up): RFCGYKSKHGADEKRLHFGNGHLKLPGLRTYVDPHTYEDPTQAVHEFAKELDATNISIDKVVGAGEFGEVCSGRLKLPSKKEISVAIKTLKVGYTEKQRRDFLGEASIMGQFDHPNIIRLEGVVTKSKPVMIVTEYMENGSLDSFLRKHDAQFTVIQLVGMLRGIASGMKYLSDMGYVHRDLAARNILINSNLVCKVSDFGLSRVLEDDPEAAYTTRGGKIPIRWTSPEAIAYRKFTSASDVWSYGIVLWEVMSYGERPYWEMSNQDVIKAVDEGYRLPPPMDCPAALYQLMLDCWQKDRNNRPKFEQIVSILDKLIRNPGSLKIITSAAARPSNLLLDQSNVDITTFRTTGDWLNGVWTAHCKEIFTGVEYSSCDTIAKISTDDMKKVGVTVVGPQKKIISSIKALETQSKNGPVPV
# T4: Flt1(h) (human, UniProt P17948 781-1338, limits assumed)
# T4 sequence (looked up): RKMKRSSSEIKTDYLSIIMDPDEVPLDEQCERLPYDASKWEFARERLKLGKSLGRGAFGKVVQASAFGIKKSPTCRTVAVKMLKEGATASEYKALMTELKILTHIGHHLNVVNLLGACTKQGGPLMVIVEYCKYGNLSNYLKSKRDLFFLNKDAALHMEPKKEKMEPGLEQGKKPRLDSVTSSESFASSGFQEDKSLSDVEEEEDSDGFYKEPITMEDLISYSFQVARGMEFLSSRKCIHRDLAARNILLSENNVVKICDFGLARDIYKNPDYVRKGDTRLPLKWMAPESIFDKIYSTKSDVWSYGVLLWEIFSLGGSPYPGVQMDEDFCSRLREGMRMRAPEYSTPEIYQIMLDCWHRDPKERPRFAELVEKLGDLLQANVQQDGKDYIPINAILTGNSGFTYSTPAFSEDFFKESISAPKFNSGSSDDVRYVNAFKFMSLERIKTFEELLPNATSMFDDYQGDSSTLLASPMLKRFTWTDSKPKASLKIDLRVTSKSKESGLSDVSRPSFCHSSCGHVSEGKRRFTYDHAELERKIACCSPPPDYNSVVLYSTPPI
# Columns and labels:
# Test in all cases: cell-based or functional assay
# IRR(h) = IRR(h) (human, UniProt P14616 960-1297, limits assumed)
# Arg(h) = Arg(h) (human, UniProt P42684 38-1182, limits assumed)
# Met(Y1248D)(h) = Met(Y1248D)(h) (human, UniProt P08581-2 974-1408, limits assumed)
# MST3(h) = MST3(h) (human, UniProt Q9Y6E0 1-443, limits assumed)
# p70S6K(h) = p70S6K(h) (human, UniProt P23443 1-421)
# Ros(h) = Ros(h) (human, UniProt P08922 1883-2347, limits assumed)
# SGK2(h) = molecular target: T1, SGK2(h)
# CaMKIIβ(h) = CaMKIIβ(h) (human, UniProt Q13554 1-666)
# CaMKIIγ(h) = CaMKIIγ(h) (human, UniProt Q13555 1-558, limits assumed)
# CHK2(h) = CHK2(h) (human, UniProt O96017 5-543, limits assumed)
# EGFR(L861Q)(h) = EGFR(L861Q)(h) (human, UniProt P00533 696-1210, limits assumed)
# EphA1(h) = molecular target: T2, EphA1(h)
# EphA3(h) = molecular target: T3, EphA3(h)
# FGFR4(h) = FGFR4(h) (human, UniProt P22455 460-802, limits assumed)
# Flt1(h) = molecular target: T4, Flt1(h)
Binder,"% activity, 100 µM (IRR(h))","% activity, 100 µM (Arg(h))","% activity, 100 µM (Met(Y1248D)(h))","% activity, 100 µM (MST3(h))","% activity, 100 µM (p70S6K(h))","% activity, 100 µM (Ros(h))","% activity, 100 µM (SGK2(h))","% activity, 100 µM (CaMKIIβ(h))","% activity, 100 µM (CaMKIIγ(h))","% activity, 100 µM (CHK2(h))","% activity, 100 µM (EGFR(L861Q)(h))","% activity, 100 µM (EphA1(h))","% activity, 100 µM (EphA3(h))","% activity, 100 µM (FGFR4(h))","% activity, 100 µM (Flt1(h))"
FAKLAARLYRKALARQLGVAA [MMI-0300],8%,72%,102%,45%,35%,95%,56%,2%,5%,66%,25%,73%,6%,28%,69%
KAFAKLAARLYRKALARQLGVAA [MMI-0400],8%,84%,31%,36%,33%,99%,98%,11%,3%,54%,22%,61%,12%,19%,48%

# Reference: US20140072613A1 (published 2014)
